Earlier results, collected in patent US20230372299A1, “PREPARATION OF TEREVALEFIM AND FORMULATIONS THEREOF” (Angion Biomedica Corp., priority 2020, published 2023).

For “HGF/SF: pleiotropic growth factor that stimulates cell growth, cell motility, morphogenesis and angiogenesis”, the half-life is listed as 3 to 5 min.
